Laboratory results from patent US20210115152A1 (ARBELE, published 2021).

Experiments:
CD3 on Jurkat T cells = CD3 on Jurkat T cells (UniProt P07766 23-207); assay: cell-based or functional assay
[1] = target: T1, CDH17 on tumor cells (DLD-1, AGS, AsPC1, CDH17-positive pancreatic and colon lines, SW40 with ectopic CDH17) (UniProt Q12864 23-832, limits assumed); assay: cell-based or functional assay
T1 sequence (looked up): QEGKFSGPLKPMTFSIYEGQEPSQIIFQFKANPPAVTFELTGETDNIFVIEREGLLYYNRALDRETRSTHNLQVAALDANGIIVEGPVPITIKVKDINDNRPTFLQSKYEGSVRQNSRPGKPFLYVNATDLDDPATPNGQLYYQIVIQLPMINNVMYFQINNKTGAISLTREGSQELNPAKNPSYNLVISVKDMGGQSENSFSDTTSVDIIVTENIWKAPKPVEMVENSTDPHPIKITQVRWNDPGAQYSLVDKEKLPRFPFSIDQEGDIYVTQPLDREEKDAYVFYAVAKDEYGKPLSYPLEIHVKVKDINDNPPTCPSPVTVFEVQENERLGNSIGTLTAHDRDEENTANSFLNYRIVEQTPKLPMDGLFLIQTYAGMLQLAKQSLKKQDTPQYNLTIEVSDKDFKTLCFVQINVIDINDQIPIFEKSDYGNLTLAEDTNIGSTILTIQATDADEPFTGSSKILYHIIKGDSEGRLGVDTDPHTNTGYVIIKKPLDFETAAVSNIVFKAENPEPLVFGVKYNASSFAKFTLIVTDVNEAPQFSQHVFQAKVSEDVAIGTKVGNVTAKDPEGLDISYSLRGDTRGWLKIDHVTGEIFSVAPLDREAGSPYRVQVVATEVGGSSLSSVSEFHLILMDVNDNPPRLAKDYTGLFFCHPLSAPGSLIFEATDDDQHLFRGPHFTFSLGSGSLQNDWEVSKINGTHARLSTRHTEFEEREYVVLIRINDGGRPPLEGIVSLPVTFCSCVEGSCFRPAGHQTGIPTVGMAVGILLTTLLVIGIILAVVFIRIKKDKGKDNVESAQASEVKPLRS

CD3 on Jurkat T cells, sequence (P07766 23-207): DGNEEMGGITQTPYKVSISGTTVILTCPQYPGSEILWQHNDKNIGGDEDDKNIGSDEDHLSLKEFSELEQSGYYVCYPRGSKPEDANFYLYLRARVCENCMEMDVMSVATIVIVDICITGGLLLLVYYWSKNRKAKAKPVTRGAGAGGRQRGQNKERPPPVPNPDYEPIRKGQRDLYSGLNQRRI

B1: h10G4fL (h10G4U1fL; ARB202), CDH17xCD3 bispecific antibody of the IgG-scFv / fL design, IgG4 (bispecific antibody)
heavy: EVQLVESGGGLVQPGGSLRLSCAASGFTFSSYAMSWVRQTPGKGLEWVAVIDSNGGSTYYPDTVKDRFTISRDNSKNTLYLQMNSLRAEDTAVYYCSSYTNLGAYWGQGTLVTVSSASTKGPSVFPLAPSSKSTSGGTAALGCLVKDYFPEPVTVSWNSGALTSGVHTFPAVLQSSGLYSLSSVVTVPSSSLGTQTYICNVNHKPSNTKVDKRVEPKSCDKTHTCPPCPAPELLGGPSVFLFPPKPKDTLMISRTPEVTCVVVDVSQEDPEVQFNWYVDGVEVHNAKTKPREEQFNSTYRVVSVLTVLHQDWLNGKEYKCKVSNKGLPSSIEKTISKAKGQPREPQVYTLPPSQEEMTKNQVSLTCLVKGFYPSDIAVEWESNGQPENNYKTTPPVLDSDGSFFLYSRLTVDKSRWQEGNVFSCSVMHEALHNHYTQKSLSLSLGKPAGGGGSEVQLVESGGGLVQPGGSLRLSCAASGYSFTGYTMNWVRQAPGKGLEWVALINPYKGVSTYNQKFKDRFTISVDKSKNTAYLQMNSLRAEDTAVYYCARSGYYGDSDWYFDVWGQGTLVTVSSGGGGSGGGGSGGGGSDIQMTQSPSSLSASVGDRVTITCRASQDIRNYLNWYQQKPGKAPKLLIYYTSRLESGVPSRFSGSGSGTDYTLTISSLQPEDFATYYCQQGNTLPWTFGQGTKVEIK
light: DIQMTQSPSSLSASVGDRVTITCRASQDISGYLNWLQQKPGGAIKRLIYTTSTLDSGVPKRFSGSGSGTDFTLTISSLQSEDFATYYCLQYASSPFTFGGGTKVEIKRTVAAPSVFIFPPSDEQLKSGTASVVCLLNNFYPREAKVQWKVDNALQSGNSQESVTEQDSKDSTYSLSSTLTLSKADYEKHKVYACEVTHQGLSSPVTKSFNRGEC
EC50 of IL2 production by PBMC in the absence of AsPC1 tumor cells (CD3 on Jurkat T cells): ≥ 18.7 nM
EC50 of IL2 production by PBMC in the presence of AsPC1 tumor cells (5:1, 16 hours) [1]: 30 pM
